The target of the experiment is full-length GST-hDlg fusion protein (human) (UniProt Q12959). Nature of the experiment: pull-down.

Kd data for one substance are collected here from paper PMC2121072.

pKd: −log10 of the molar value.

Chain of full-length GST-hDlg fusion protein (human) (Q12959 whole entry, the tested form may be a part): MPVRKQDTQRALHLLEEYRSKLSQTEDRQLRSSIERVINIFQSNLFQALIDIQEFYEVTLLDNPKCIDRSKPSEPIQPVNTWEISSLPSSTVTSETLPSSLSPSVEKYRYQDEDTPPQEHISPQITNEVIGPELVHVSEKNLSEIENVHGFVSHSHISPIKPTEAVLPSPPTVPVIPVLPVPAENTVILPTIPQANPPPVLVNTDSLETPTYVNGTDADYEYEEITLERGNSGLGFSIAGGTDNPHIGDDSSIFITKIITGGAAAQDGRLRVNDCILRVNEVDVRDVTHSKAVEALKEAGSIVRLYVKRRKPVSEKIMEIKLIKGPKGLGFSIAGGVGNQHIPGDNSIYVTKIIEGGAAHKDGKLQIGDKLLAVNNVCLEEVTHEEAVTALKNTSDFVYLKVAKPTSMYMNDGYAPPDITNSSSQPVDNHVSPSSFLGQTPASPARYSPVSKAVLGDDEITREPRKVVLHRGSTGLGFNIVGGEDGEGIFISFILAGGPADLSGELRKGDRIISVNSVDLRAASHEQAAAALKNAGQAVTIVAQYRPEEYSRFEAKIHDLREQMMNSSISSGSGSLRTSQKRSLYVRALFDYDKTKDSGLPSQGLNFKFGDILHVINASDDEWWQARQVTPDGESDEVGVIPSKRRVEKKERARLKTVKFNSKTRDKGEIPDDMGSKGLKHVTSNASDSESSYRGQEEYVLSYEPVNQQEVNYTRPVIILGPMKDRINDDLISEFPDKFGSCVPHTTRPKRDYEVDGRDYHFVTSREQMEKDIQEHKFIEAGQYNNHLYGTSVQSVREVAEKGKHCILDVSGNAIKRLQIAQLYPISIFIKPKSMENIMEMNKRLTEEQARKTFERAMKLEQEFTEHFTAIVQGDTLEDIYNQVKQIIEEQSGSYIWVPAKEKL

In general, pKd refers to the negative decadic logarithm of the Kd, by convention in mol/L. As to “125I-labeled 30-kD amino-terminal domain of protein 4.1 (domain or fragment)”, the pKd is 8.28.
